Results on 13 sequences are retold here after the DeepSol protein solubility set.

This data set is described as follows: soluble on expression in E. coli; label from the status in PepcDB or PDB records.
Take “MNKKNKFFDIYLELEQDITSGVYPAGTLLPSENVLAKRFSVSRETIRKALVLLLENGCIQKLQGKGSIVIDRERYSFPVSGLTSFKELQKSEQMNATTEVIRNEETTLPDRIADFAGLPHGSNCLAILRVRYLEGEATILDYDYLLDKTEPIANEILEDSLYQYLENEKGYEISYAQKEITVEPLNAEDKKYLALHGDTHVVVVKSTVFLKDTTLFQYTESRHRLDKFRFIDFARRR”: the “soluble on expression in E. coli” value is reported as “not soluble”.

Regarding “MNKKQRDEISKLLSYVLRHAPESMGLTLDRDGWCEVDELVGKANANGHSFDRQALEEVVETNEKKRFTLSEDGQRIRAAQGHSTEQVQVQHIEKEPPAWLYHGTASRFMASIETQGLIAGSRHHVHLTEDPETALSVGKRYGQPVLLAVDAKGMFEAGVQFFQADNGVWLVEAVPIEWLTKVADTVSLEHHHHHH”, the “soluble on expression in E. coli” value is listed as “soluble”.

“MNKTKNYSDETIDAFHRGKFYLVQPRLCGHRSGMDAMLLASLVPNNFKGKVVDLGAGAGAVGLAVAARCLDVHVTLVERSAFMVSYAQKTLMLKQNENLSKRVCLLKADVTLKGRSRLEAGLVDNAFDFAIMNPPFNNPVDRKTPDEKKFEAHVMPESMFDDWLRSAAAIVKPGGYLGLIARPQSLTDILCALEGRFGNICVIPIHARTEKAAIRVLFYAKRGSRAALSLLRPLVIHEDGCHIFSPKIDAINNGHISLWELLK”: the “soluble on expression in E. coli” value is given as “not soluble”.

In the case of “MNLASVLLLLAACHLSVSVNGQEHKEAIELSMANHDHVLGSAQVVFVAFCADWCPFSRRLKPIFEESARVFHQENPQASAVWAIVDSQRQADIGDKYFVNKYPTMKVFVNGELITKEYRSTRSVEALTNFVKFQLSTAINEFSSQDQLNQEMDKSKRNVVAWLKKDGPEFANLKKVASILREDCSFWVPTDHFGTQTNDNKLSFFDPDSNEEAKFTGNFNDYDFVKQWVTDKCIPLVREVTFENVEELTEEGMPFLIYFRDPDNKTTDKVFGEAVARELYDQRSAINPLLADGHKFAHPLKHLGKTKEDLPVLAIDSFQHMYLFPDMTQMNIPGKLREFVMDLHSGKLHKDFHENLDQRMIELAKAKAARGITDDHEAQAPSTRPIDTTPPPSVFKELKPSDKRYSILQKSEL”, the “soluble on expression in E. coli” value is listed as “not soluble”.

Consider “MNLMNVADKVIKSAFESDEVFQKTLSAVIKEDLNLTAVDFAKKANIPPSTLYKILSGNRDPNIKTLRQIVKTIRDIKESDSGEFIAVIAARSVLDNIVETKKKIGGRLVTIREYSATSMEDAIISAVNAERDGAKALVCAPIVGPTVEKILNIPVTTIAPKNSLIDAIERALKKME”, for which the “soluble on expression in E. coli” value was “not soluble”.

For the sequence “MNLSNHFLVAMPDMEDAFFSQSVVYICKHDEDGALGIAINKPSPITMDMIFSATGKNIPFRMQHDSVMMGGPVQVERGYVVHTPIGNWQSSIGVSDNIALTSSRDVIENISREGAVDKILISIGYSSWGKGQLERELADNAWLTVPADEHILFDIPYEHRYAAAFAKLGIDPLALFSGAGHALEHHHHHH”, the “soluble on expression in E. coli” value is “soluble”.

Consider “MNMPLISIIMPVYNAECYLNQGILSCLNQSYQNIELILIDDGSTDKSIEIINNIIDKDKRVKLFFTPTNQGPAAARNIGLEKAQGDYITFLDSDDFIANDKLEKQLNFMLQNHLVMTHGNYAFCDLEGNQIKLVTTSKKIDYLTLLQGNQFKIMTVLVERESIKLLRFPNIKHEDYAFFLDCLKEVKQSILYSHQASSFVRIGKVSVSSNKFKSAIWTFNIYFKREKLGVVKSIYYFILYAYNGFIKYKK”, for which the “soluble on expression in E. coli” value was “not soluble”.

As to “MNNALYNQIRIFQSIAREGNISAAARKLEITPPSVSNALRLLEEHIGHPLFVRTTRRIELTETGQQLLEQTAAAVETLEKSLEIIRDQNQEPSGAVRITLSRFAYLLILKPAMAAFCQQYPGIQLEISVYDGTVNIIEERFDLGIRFGDILEGGVVARPLMKPFREGLYASSAYLAEYGVPAMPADLHHHRLIGYRFITNNRILPLILNDHGEQLTVEMPGQLISNDIDVMADGIRHGLGIGRLFEPILQLQPDREQFIPVMEDYWKTYPPVYLYYPKNAGRTKRVKALIDFLIMYAADDAEKIGSSR”, the “soluble on expression in E. coli” value is “not soluble”.

With “MNNNENQTLISGGTVVTPTTEIEKGTVAFSNGKIVSVEAESHDNPDIDATGKYVLPGLVDLHGDDIERHLFPRAEERVDTTIALDRCDIANASAGVTTKYHAISFEDVPDDNRSIELARRLAEQIRNFNYETGARVDNRLHMRCELTNEASVDAVSEEIKSGGDLVSLVTHVPGTGQFTGENTLAQRYDRSDGELETGLQSLKTRRSGVPEAELLARAREVTELASNRNMTVASHDDETVASVDNAAAIGVDISEYPLSHRVAQRATELNLTVAMGAPNVVRGGSLWDGPDASQAIKDGVVDILCSDFRPQSLLSSVFIENDEPLKDRVFRVSTAPAAAAGLYDRGRLECGARADIIIVDPDPSPSIARTYVAGDQVYCSA”, the “soluble on expression in E. coli” value is recorded as “not soluble”.

In the case of “MNNPEESAVTDLRKFTNLVLNGLVDEEATAAALIRYQFQQRTIKDVVRRGSEDPELKAQICDLLNHLVIYLNEEIVETSSKACPDGMDDRHFVQLEKRMHLMFEVYLAMNVVPDYLIPDLTKHVDASREAVKYSYSLCKDYYRWKELPLTLKEFFLDEKEEVKAVVDEPEPTMFARDDGVVSSLAHEKAQSDEDGKKKQFVAKTEKVLNNYRAKNPDYRTMRELINAKTKFRLEGIYCDSLIDDFISVWDMAIDIEPVKTEDKFAFTSLLKKVFLMMVDKRRNDFASKILDKYNNDASGVLPCLDNFVENFQTGLTAAINNLPLDANVLSNNMELFEKAKDPIIWYLLISPAYTVQQILLICVDNKGYVPLVSRIFRAIPTLFERSVNLTPMHFEGFKTQKLLITILHRVFIIGRTTWTSASQWENAAMMTMSFAKERKRKEGQPEKVEDKALLDSFSLVNFALNELFKDYRKPLKAVEIFVKMLQRLLANNNNARMLTNYQFSSSFFDDGNNYLPTSIIMLLMFDLLVEYDGQSNEVCDGARDILKSVSGRLNNDNIIFDTDTCRHLIDEKLNYAPWWIKYSICSWFSSSLQNPKKQVPSGVYKTIAEQHLDEFEQIKPEEVSTVSDCYFRSLFELGLFDVDLAIELLQYGHVAKFESSVVEKIALALVDSYGKKMSKRSGGLDIGKLIISMLQNSSYLESVKKIEHILVLFMAARIAKEKQLSAARVRTDDTIQTAYDEVISLNQVSDQLMDIFCETTKAHVDKEVMEVEQMRREVEVLLFSTPGTTPNQFKAMVEKENREQSLALQLSMIYLNCSYFCRLYQQVPIKLQQLMNSTLEKQFDSQKFLAKKVMDDVLTEKRKTEVVYAFVDTPVEPTPNEDNIQPVKPAELFRPPVVENVSVESTTYNSNGGGYRQGRYQTGYQGKNRRSNFEQPTSSRGSGRSDRTYAYKGNRFQPVNDSHVFAPRERENVYQNSSHDRDIPRNDYSEYDQEKLYLDDKQPRFHSENRNSNDVRRYSESKDSKYDNKNWNNRSSRWPSESEYSQEDSENRHLDQTIQSVRKFSYRENQQKHNRPGTSSASPPKNQEWKQHQQQKKSFGGGFGENGNKFNGNSRKQPERKPRYTSSNFYEQDEDSLQLLKPDRNELAQAMGLNDPPNPPKPRRSEWTRR”, the “soluble on expression in E. coli” value is given as “not soluble”.

For the sequence “MNNRSAVRILRLPAVIQKTGMARATIYDWLNPKSPRYDATFPKKRMLGVKSVGWIEAEIDEWLSQRCKLILEHHHHHH”, the “soluble on expression in E. coli” value was “not soluble”.

Regarding “MNPAALSAFTRSLLFNRCSTSSFCNSITRNAVAFFATAAATPKINVNVGTIGHIDHGKTTLTSAITRVQAKKGFAKHIKFDEIDKGKEEKKRGITINVAHIGYESPLRRYSHTDCPGHSDFIKNMICGTSQMDVAVLVIAATDGVMEQTKEHLILAKQVGVKNMAIFINKADLVEEDDLDLVEMEARELLSLHGFNGDATPVIRGSALSALEGQDISCIERLIDALDSLPEPDRNEKDTFVMPIASKTAITGRGTVIVGTLERGVLKKGDKVEIKGDGQTLQTTASDIQVFGKSVKEVRAGDHCGVLCRGVKGDTVKRGMWAGHPGAVTITNRVKVELYLLSEAENGRKIGIRTGFTDKMYCSTWDQVGRFDMSNELLMPGEHTSATVLLMKDMPLRKGMPFTLREGSSKTTIARGIISDLEDHVAVEKHNLKKSAEKM”, the “soluble on expression in E. coli” value is recorded as “not soluble”.

Consider “MNPIVINRLQRKLGYTFNHQELLQQALTHRSASSKHNERLEFLGDSILSYVIANALYHRFPRVDEGDMSRMRATLVRGNTLAELAREFELGECLRLGPGELKSGGFRRESILADTVEALIGGVFLDSDIQTVEKLILNWYQTRLDEISPGDKQKDPKTRLQEYLQGRHLPLPTYLVVQVRGEAHDQEFTIHCQVSGLSEPVVGTGSSRRKAEQAAAEQALKKLELE”, for which the “soluble on expression in E. coli” value is recorded as “soluble”.
